Publication PMC7820984

T1: MBP-WRKY21 (Oryza sativa, UniProt Q5FZT4 1-280)
T1 sequence: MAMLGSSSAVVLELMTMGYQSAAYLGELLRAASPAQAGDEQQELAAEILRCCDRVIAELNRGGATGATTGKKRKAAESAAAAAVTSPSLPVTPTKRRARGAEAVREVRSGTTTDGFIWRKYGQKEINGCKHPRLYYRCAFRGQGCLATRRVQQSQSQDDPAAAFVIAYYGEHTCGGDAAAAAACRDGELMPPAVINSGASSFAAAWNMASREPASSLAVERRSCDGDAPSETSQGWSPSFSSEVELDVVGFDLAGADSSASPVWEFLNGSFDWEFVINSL

B1: F2 (Wz and Wy W-boxes) (dsDNA)
DNA 1: TTTTAATAGATGACGCCGTTGACTTTTTCTTACATATTTGACCATTCGTCTTATCCAAAA
DNA 2: TTTTGGATAAGACGAATGGTCAAATATGTAAGAAAAAGTCAACGGCGTCATCTATTAAAA
B2: F2-m (Wz and Wy mutated) (dsDNA)
DNA 1: TTTTAATAGATGACGCCGTTGAATTTTTCTTACATATTTGAACATTCGTCTTATCCAAAA
DNA 2: TTTTGGATAAGACGAATGTTCAAATATGTAAGAAAAATTCAACGGCGTCATCTATTAAAA

Molecular target: T1, MBP-WRKY21
Assay: EMSA

Binder	binding result
B1	binds
B2	no binding
